We go through 21 sequences from the DeepSol protein solubility set.

A short description of the data set: soluble on expression in E. coli; label from the status in PepcDB or PDB records.
As for “MVSGYTQSEIDSIAGWLRAGDSASKAAAKLSTMRGRAVSRNAIIGIVHRNAKLAAIGFGRAKSSPASEGSSTYTPEEIKLVADCLKAKRNYVQIAQRLALKSGRIISRFGVKSLIRRTPELNEIGFRGKKGRPSDKKKAAPGQLPGRLFIAATADIDRDPSAFDYLTRPAVRALASQPHFAAMRFVDCLPARCRAPLSYDLEERPGPDMLCCGHLAMPSRSYCAYHEIRLTARKAEFIAEAALEHHHHHH”, the “soluble on expression in E. coli” value is reported as “soluble”. With “MTNLFVRSGISFVDRSEVLTYIGNEMLAKGVVHDTWPQALIAREAEFPTGIMLEQHAIAIPHCEAIHAKSSAIYLLRPTNKVHFQQADDDNDVAVSLVIALIVENPQQQLKLLRCLFGKLQQPDIVETLITLPETQLKEYFTKYVLDSDE” the entry was “not soluble”. With “MGSDKIHHHHHHMALKHYKNSDSTVFNDAKALFDLNKNILLKGPTGSGKTKLAETLSEVVDTPMHQVNCSVDLDTESLLGFKTIKTNAEGQQEIVFVDGPVIKAMKEGHILYIDEINMAKPETLPVLNGVLDYRRQITNPYTGEVIKAVPGFNVIAAINEGYVGTLPMNEALKNRFVVIHVDYIDGDILKNVIKEQSLLQDDKQIEQIIKFNEDLRTMSKQGQISEEAASIRALLDLCDLITVMPVERAIKRTIIDKLEDEREQQAIYNAVELNF” the entry was “not soluble”. With “MGHHHHHHSHKVYWGVAWDRSDVAVKIYLSFTSDFRKSIRKYIVGDPRFEDIPAGNIRRLIYEWARKEYRNLRRMRESGVRVPRPVAVEANIIVMEFLGEKGYRAPTLAEAVEELDRGEAEAIAAEVLRQAEAIVCRARLVHADLSEYNILVWRGEPWIIDVSQAVPHSHPNAEEFLERDVENLHRFLTGKMGFEFDFDAYLSRLKS” the entry was “not soluble”. Consider “MWRLYRKTPKQLRNSVESCFKSVNSRQFSVSSFSAVAKDDKSVLKQQEVLHLLAKDQRFEERFFNQVQQTIRYFASKPNDLKKFFRKEASTDNKESSSSSDKKDSKGNKGEDNNPFNQFPGGWQQIAVSVGILLALYAFMDYQSYREISWKEFYSDFLEAGLVERLEVVDKRWVRIVSSSGKYAGQTCYFNIGSVDSFERSLGAAQHHLQYDADRQIPVLYKSEFNFKREIPNLISVAFPLLFGYYIYRMLKGGGAAGGAGRAGGGGLGGMFGGFGQSTARVINREDIKVKFADVAGCEEAKIEIMEFVNFLKNPQQYKDLGAKIPKGAILTGPPGTGKTLLAKATAGEANVPFITVSGSEFLEMFVGVGPARVRDMFSMARKNSPCILFIDEIDAVGRKRGGKGGMGGHSEQENTLNQLLVEMDGFTTDESSVIVIAATNRVDILDSALLRPGRFDRQIYVPVPDIKGRASIFRVHLGPLRTSLDKTVLSRKLAAHTPGFSGADISNVCNEAALIAARDANHEISNKHFEQAIERVVAGMEKKTQVLQKEEKKTVAYHEAGHAIAGWFLQHADPLLKVSIIPRGKGLGYAQYLPKEQYLYSKDQLLDRMCMTLGGRVAEEIFFGRITTGAQDDLQKVTQMAYSQVVKFGMSEKVGPLSFETPAPGEMAFDKPYSEATAQLIDQEVRDLVMNALRRTRDLLLEKRSDIERVALRLLEKEILNREDMIELVGKRPFVEKNTYEEMVSGTGGLDENVELPKGLENWNKESEKKKKDEEKKKNDE”, for which the “soluble on expression in E. coli” value is “not soluble”.

Take “MEKSYMKHELWGDGDFQEDDVWDVLDGYQSPFMISSNHTTKPSFSTQTLLPSEPRMIPERQRTEGMAPMRQQSVPVNVPDWSMVQRKKTKKVVDDENVSPEEYFLRRSRSSSSSSVMEGVGRKLKGRDLSKVRNAILKQTGFLE”: the “soluble on expression in E. coli” value is “soluble”.

As to “MSLYSENDISNSIKNGILYLEDPVNHEWYPHYFVLTSSKIYYSEETSSDQGNEDEEEPKEVSSSTELHSNEKWFHGKLGAGRDGRHIAERLLTEYCIETGAPDGSFLVRESETFVGDYTLSFWRNGKVQHCRIHSRQDAGTPKFFLTDNLVFDSLYDLITHYQQVPLRCNEFEMRLSEPVPQTNAHESKEWYHASLTRAQAEHMLMRVPRDGAFLVRKRNEPNSYAISFRAEGKIKHCRVQQEGQTVMLGNSEFDSLVDLISYYEKHPLYRKMKLRYPINEEALEKIGTAEPDYGALYEGRNPGFYVEANPMPTFKCAVKALFDYKAQREDELTFIKSAIIQNVEKQEGGWWRGDYGGKKQLWFPSNYVEEMVNEGHHHHHH”, the “soluble on expression in E. coli” value is “soluble”.

For the sequence “MSLDVTDAQAIADHWGRGDVFGLIVAALNQMAKPLDGLTVEELAPVDHFHSRGFPATVEFADRLPINAGEQILDIGCGLGGPARYMAKRFQCRVSGIDITGPFVEAANRLTALLHMEQQVEIAQGNGQRLPYPDSCFDGAYTQDVTMNVAERAGFFAEAYRVLKPGAFFALSEHGLGPQGKPHYPVPWSDDGTGAYLTAPAETRAILERTGFEAITVEDTGAKCVAGYGKVIERAEKGALPPLGLHLFMGESMVEKMRNAARNIEEGRTHPIQLICRKEGHHHHHH”, the “soluble on expression in E. coli” value is given as “soluble”. With “MTTVTVTTEIPPRDKMEDNSALYESTSAHIIEETEYVKKIRTTLQKIRTQMFKDEIRHDSTNHKLDAKHCGNLQQGSDSEMDPSCCSLDLLMKKIKGKDLQLLEMNKENEVLKIKLQASREAGAAALRNVAQRLFENYQTQSEEVRKKQEDSKQLLQVNKLEKEQKLKQHVENLNQVAEKLEEKHSQITELENLVQRMEKEKRTLLERKLSLENKLLQLKSSATYGKSCQDLQREISILQEQISHLQFVIHSQHQNLRSVIQEMEGLKNNLKEQDKRIENLREKVNILEAQNKELKTQVALSSETPRTKVSKAVSTSELKTEGVSPYLMLIRLRK” the entry was “not soluble”; with “MGSDKIHHHHHHMTEQVMNKHQLETGLSILGAPVPGQEIVLNEGALSLLEVLCDQFAAEVPKLLEMRRQKQELIDKGSLPDFLPETRAIRDGDWQIRGIPQDLQDRRVEITGPVDRKMIINALNANVKVFMADFEDSLAPSWIKVIQGQINLRDAVRGEIEYTAPETGKHYTLDDDPAVLIARVRGLHLKEKHVAFNGEAIPGALFDFCLYFYHNYRQLLEKGSGPYFYIPKLESHVEARWWAKVFAYVEERFCLTPGTIKCTCLIETLPAVFEMEEILYELRSNIVALNCGRWDYIFSYIKTLKKHSDRILPDRQAVTMDKPFLSAYSRLLIKTCHKRGALAMGGMAAFIPAKDQAQNEAVLVKVRGDKELEARNGHDGTWVAHPGLADTAMGIFNEYIGEDHVNQLHITRDVDAPILARDLLMPCEGERTESGMRLNIRIALQYIEAWIRGNGCVPIYGLMEDAATAEISRTSIWQWIQHEQKLSNGKLVTKALFKEMLVEELANVKLEVGPDRFTHGSFTQAAVLLEEITTADELVDFLTLPGYEILTQGDNA”, “not soluble”.

Regarding “MSLSQFAAGAGKKAGEFYTPQEVSRILAEIVAIGHQRLRNVYDPTCGSGSLLLRAASIGNAVDIYGQEKNPTTYNLARMNMLLHGIRFSNFKIENGDTLEWDAFGDTQFDAVVANPPFSAEWSAADKFNTDDRFSKAGRLAPRKTADYAFILHMIYHLNEGGTMACVAPHGVLFRGNAEGVIRRFLIEKKNYVDAIIGLPANIFYGTSIPTCILVFKKEGHHHHHH”, the “soluble on expression in E. coli” value was “not soluble”. In the case of “MKSLSYKRIYKSQEYLATLGTIEYRSLFGSYSLTVDDTVFAMVSDGELYLRACEQSAQYCVKHPPVWLTYKKCGRSVTLNYYRVDESLWRNQLKLVRLSKYSLDAALKEKSTRNTRERLKDLPNMSFHLEAILGEVGRLAP”, the “soluble on expression in E. coli” value is given as “not soluble”. With “AVVATKVGATVMNANPFTLGHRYLIEQALAQCDHLHLFVVEEEASQFCYQERFALVQHGIADLSNITLHPSSQYIISRATFPDYFLKDSHIVDAAYLELDLRLFRQHIAPALAITHRFIGTEPFCPVTAEYNRKMHYWLQQAVMEADAINVVEIERKKVSNQAISASTVRQLFSERKWQQLLSMVPITTFNFLQKIANEP” the entry was “not soluble”; with “MFNVDGECVVFTSGGTESNNWVIEGTIRNAKKVSKLPHIITTNIEHPSILEPLKRREEDGEISVTYVSINPLTGFVTSQSILDALTSDTCLVTIMLANNDTGVLQPVSEIFQAIREKLKTNVPFLHSDVAQAAGKIPVNVRSLSADAVTVVGHKFYGPRSGALIFNPKSKRIPPMLLGGNQESGWRSGTENTPMIVGLGEAAKVYNEGFLNIESILRQNRDYFEELLLKRLRNSHIIHFIGSQRLPNTSSVAFLDYPSHGCDLLEKCQTFNASTGAACHKNECSPILKACGIPFAVASKTVRISFGRSTKIAEIETVVDELVQLCSPS”, “not soluble”; with “MSLGAIVEVITIKNYSLKSENYEAEIDIPKIRGLKDKNLEQRLNSSFMEDGKRLYHQFQERMEKIQSSKNKGYKSLSLSYSVKNNSKKFLSIEMTKNEIEASSYVSKVHYTIDKKRQIVLTLPMLFKDDKYIKVISDNIKEQMREQMKKDSTKSYFIDQKKDLPVEDFKTINKYQDFYFNKNEDLVICFDEYEVAPGYMGAVEFVIPYKVIKDEGHHHHHH”, “soluble”.

As to “GVRNLAQGPRGCEHYDRACLLKAPCCDKLYTCRLCHDTNEDHQLDRFKVKEVQCINCEKLQHAQQTCEDCSTLFGEYYCSICHLFDKDKRQYHCESCGICRIGPKEDFFHCLKCNLCLTTNLRGKHKCIE”, the “soluble on expression in E. coli” value is “soluble”. Take “MHISFIIPAFNEEQLIEPCLRSITDAVAANRSYGYTSEIIVVDNNSTDATAQLAKQAGAQVVFEPVNHIARARTAGAGAARGDWLVFMDADCLLNAGLVGDIFELIRQGRHIGAGSTLYMPGQPWWAEMLLRIWTFLSVQLGWAAGALIVCNAAAFREVGGFDLTLYAAEEIDLSQKLKKYGRKRKLKFAILNAHPLETSSRKTQLYSGWEIVGQFLRLVLSPLGTLRNKKKLPMWYDGRRLEHHHHHH”: the “soluble on expression in E. coli” value is recorded as “soluble”. “MSLKHSKIRIAHISDIHIGSRLDKLPQKMVNKIIEENPDLVVITGDLIDSHNVISTDLASFNAFKERNIPIYYTIGNHDIMAGEEYVSSILEYYGIIYLKNQVTQITIGDETIQLVGIDDVQSITKYNEIFNSITPSIHNNIYTILLHHRPQGYKTSVQSGQIDLQLAGHTHDGQVFPFNYIVPLFHSKSYGMYHIKDTSKELILYTHPGSCAWGPHFRTAAKNLITIFSIESSNEGHHHHHH”: the “soluble on expression in E. coli” value is on record as “soluble”. With “MKSVKNSWNSSIKDGEYQRKESQFRNWITTDGSAGITGRGGFQAEAGRYHLYVSLACPWAHRTLIFRQLKGLEDLITVSVVHPDMHENGWSFKHDEESAKLYGTTGDNLYDGKFISEKYLAQDPDYSGVNSVPVLWDKKDKVIVNNESSEIIRMFNSAFNDITGNTLDFYPEHLREKIDHENELVYHKINNGVYKTGFATTQEAYDKNVNELFAALEQIDEKLSKQRYLTGDEITEADWRLWATLVRFDSVYHTHFKCNLKLIKEFSNIYNYMLELFQVPNVAKTVNEAHIKRHYYASHVAINPYGIVPIAHQQDWTAQHNRDKQFS” the entry was “not soluble”; with “MALVVQKYGGSSLESAERIRNVAERIVATKKAGNDVVVVCSAMGDTTDELLELAAAVNPVPPAREMDMLLTAGERISNALVAMAIESLGAEAQSFTGSQAGVLTTERHGNARIVDVTPGRVREALDEGKICIVAGFQGVNKETRDVTTLGRGGSDTTAVALAAALNADVCEIYSDVDGVYTADPRIVPNAQKLEKLSFEEMLELAAVGSKILVLRSVEYARAFNVPLRVRSSYSNDPGTLIAGSMEDIPVEEAVLTGVATDKSEAKVTVLGISDKPGEAAKVFRALADAEINIDMVLQNVSSVEDGTTDITFTCPRSDGRRAMEILKKLQVQGNWTNVLYDDQVGKVSLVGAGMKSHPGVTAEFMEALRDVNVNIELISTSEIRISVLIREDDLDAAARALHEQFQLGGEDEAVVYAGTGR”, “soluble”; with “GSHMSRILAVHASPRGERSQSRRLAEVFLAAYREAHPQARVARREVGRVPLPAVTEAFVAAAFHPQPEQRSLAMQADLALSDQLVGELFDSDLLVISTPMYNFSVPSGLKAWIDQIVRLGVTFDFVLDNGVAQYRPLLRGKRALIVTSRGGHGFGPGGENQAMNHADPWLRTALGFIGIDEVTVVAAEGEESGGRSFEDSCDEAEQRLLALARSA”, “soluble”.
